Source: patent US20230357348A1 (AstraZeneca / MedImmune, published 2023)
Starred links: 1 amine or outer side, 2 acyl side, 3 side chain; linkers in the order of their positions; H or OH if unused. Non-standard residues stand in square brackets, D forms with d. Groups on a side chain read outwards from the residue. No end group written: not given here. *: point of attachment. C20 diacid = O=C(O)CCCCCCCCCCCCCCCCCCC(=O)*; C18 diacid = O=C(O)CCCCCCCCCCCCCCCCC(=O)*; γGlu = O=C(O)[C@H](CCC(=O)[*:2])N[*:1]; αMeF = C[C@](N)(Cc1ccccc1)C(=O)O; AEEA = NCCOCCOCC(=O)O; Aib = CC(C)(N)C(=O)O

Columns and labels:
[1] = target: human GLP-1 receptor (hGLP-1R) (human, UniProt P43220 24-463); experiment: cell-based or functional assay
[2] = target: human glucagon receptor (hGCGR) (human, UniProt P47871 26-477); experiment: cell-based or functional assay
Chain of human glucagon receptor (hGCGR) (P47871 26-477): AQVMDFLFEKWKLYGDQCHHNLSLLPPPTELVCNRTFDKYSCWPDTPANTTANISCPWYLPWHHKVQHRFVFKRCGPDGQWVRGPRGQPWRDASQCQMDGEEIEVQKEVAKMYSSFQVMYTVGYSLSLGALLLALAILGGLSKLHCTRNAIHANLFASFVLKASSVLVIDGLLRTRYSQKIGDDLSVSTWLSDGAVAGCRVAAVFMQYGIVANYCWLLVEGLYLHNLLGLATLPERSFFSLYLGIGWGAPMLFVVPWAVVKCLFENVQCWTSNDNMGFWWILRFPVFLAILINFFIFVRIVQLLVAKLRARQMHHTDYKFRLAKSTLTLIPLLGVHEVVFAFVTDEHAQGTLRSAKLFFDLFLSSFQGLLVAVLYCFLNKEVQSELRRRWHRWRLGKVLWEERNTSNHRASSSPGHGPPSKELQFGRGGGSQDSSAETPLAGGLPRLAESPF

B1: Peptide 513 (peptide)
peptide: H[Aib]QGT[αMeF]TSDVSK[αMeF]LDTK([AEEA-AEEA-γGlu-C18 diacid])RARD[αMeF]VQWLLA[Aib]G-NH2
modifications: N-terminus assumed
SMILES: CC(C)C[C@H](NC(=O)[C@H](CC(C)C)NC(=O)[C@H](Cc1c[nH]c2ccccc12)NC(=O)[C@H](CCC(N)=O)NC(=O)[C@@H](NC(=O)[C@](C)(Cc1ccccc1)NC(=O)[C@H](CC(=O)O)NC(=O)[C@H](CCCNC(=N)N)NC(=O)[C@H](C)NC(=O)[C@H](CCCNC(=N)N)NC(=O)[C@H](CCCCNC(=O)COCCOCCNC(=O)COCCOCCNC(=O)CC[C@H](NC(=O)CCCCCCCCCCCCCCCCC(=O)O)C(=O)O)NC(=O)[C@@H](NC(=O)[C@H](CC(=O)O)NC(=O)[C@H](CC(C)C)NC(=O)[C@](C)(Cc1ccccc1)NC(=O)[C@H](CCCCN)NC(=O)[C@H](CO)NC(=O)[C@@H](NC(=O)[C@H](CC(=O)O)NC(=O)[C@H](CO)NC(=O)[C@@H](NC(=O)[C@](C)(Cc1ccccc1)NC(=O)[C@@H](NC(=O)CNC(=O)[C@H](CCC(N)=O)NC(=O)C(C)(C)NC(=O)[C@@H](N)Cc1c[nH]cn1)[C@@H](C)O)[C@@H](C)O)C(C)C)[C@@H](C)O)C(C)C)C(=O)N[C@@H](C)C(=O)NC(C)(C)C(=O)NCC(N)=O
hGLP-1R EC50 (pM) [1]: 93.8 pM | hGluc-R EC50 (pM) [2]: 1340 pM

B2: Peptide 514 (peptide)
peptide: H[Aib]QGTFTSDVSK[αMeF]LDTK([AEEA-AEEA-γGlu-C18 diacid])AARDFVQWLLE[Aib]G-NH2
modifications: N-terminus assumed
SMILES: CC(C)C[C@H](NC(=O)[C@H](Cc1c[nH]c2ccccc12)NC(=O)[C@H](CCC(N)=O)NC(=O)[C@@H](NC(=O)[C@H](Cc1ccccc1)NC(=O)[C@H](CC(=O)O)NC(=O)[C@H](CCCNC(=N)N)NC(=O)[C@H](C)NC(=O)[C@H](C)NC(=O)[C@H](CCCCNC(=O)COCCOCCNC(=O)COCCOCCNC(=O)CC[C@H](NC(=O)CCCCCCCCCCCCCCCCC(=O)O)C(=O)O)NC(=O)[C@@H](NC(=O)[C@H](CC(=O)O)NC(=O)[C@H](CC(C)C)NC(=O)[C@](C)(Cc1ccccc1)NC(=O)[C@H](CCCCN)NC(=O)[C@H](CO)NC(=O)[C@@H](NC(=O)[C@H](CC(=O)O)NC(=O)[C@H](CO)NC(=O)[C@@H](NC(=O)[C@H](Cc1ccccc1)NC(=O)[C@@H](NC(=O)CNC(=O)[C@H](CCC(N)=O)NC(=O)C(C)(C)NC(=O)[C@@H](N)Cc1c[nH]cn1)[C@@H](C)O)[C@@H](C)O)C(C)C)[C@@H](C)O)C(C)C)C(=O)N[C@@H](CC(C)C)C(=O)N[C@@H](CCC(=O)O)C(=O)NC(C)(C)C(=O)NCC(N)=O
hGLP-1R EC50 (pM) [1]: 76.7 pM | hGluc-R EC50 (pM) [2]: 1370 pM

B3: Peptide 515 (peptide)
peptide: H[Aib]QGTFTSDVSK[αMeF]LDTK([AEEA-AEEA-γGlu-C20 diacid])AARDFVQWLLE[Aib]G-NH2
modifications: N-terminus assumed
SMILES: CC(C)C[C@H](NC(=O)[C@H](Cc1c[nH]c2ccccc12)NC(=O)[C@H](CCC(N)=O)NC(=O)[C@@H](NC(=O)[C@H](Cc1ccccc1)NC(=O)[C@H](CC(=O)O)NC(=O)[C@H](CCCNC(=N)N)NC(=O)[C@H](C)NC(=O)[C@H](C)NC(=O)[C@H](CCCCNC(=O)COCCOCCNC(=O)COCCOCCNC(=O)CC[C@H](NC(=O)CCCCCCCCCCCCCCCCCCC(=O)O)C(=O)O)NC(=O)[C@@H](NC(=O)[C@H](CC(=O)O)NC(=O)[C@H](CC(C)C)NC(=O)[C@](C)(Cc1ccccc1)NC(=O)[C@H](CCCCN)NC(=O)[C@H](CO)NC(=O)[C@@H](NC(=O)[C@H](CC(=O)O)NC(=O)[C@H](CO)NC(=O)[C@@H](NC(=O)[C@H](Cc1ccccc1)NC(=O)[C@@H](NC(=O)CNC(=O)[C@H](CCC(N)=O)NC(=O)C(C)(C)NC(=O)[C@@H](N)Cc1c[nH]cn1)[C@@H](C)O)[C@@H](C)O)C(C)C)[C@@H](C)O)C(C)C)C(=O)N[C@@H](CC(C)C)C(=O)N[C@@H](CCC(=O)O)C(=O)NC(C)(C)C(=O)NCC(N)=O
hGLP-1R EC50 (pM) [1]: 297 pM | hGluc-R EC50 (pM) [2]: 2660 pM

B4: Peptide 517 (peptide)
peptide: H[Aib]QGTFTSDVSK[αMeF]LEAK([AEEA-AEEA-γGlu-γGlu-C18 diacid])AAREFIAWLLET-NH2
modifications: N-terminus assumed
SMILES: CC[C@H](C)[C@H](NC(=O)[C@H](Cc1ccccc1)NC(=O)[C@H](CCC(=O)O)NC(=O)[C@H](CCCNC(=N)N)NC(=O)[C@H](C)NC(=O)[C@H](C)NC(=O)[C@H](CCCCNC(=O)COCCOCCNC(=O)COCCOCCNC(=O)CC[C@H](NC(=O)CC[C@H](NC(=O)CCCCCCCCCCCCCCCCC(=O)O)C(=O)O)C(=O)O)NC(=O)[C@H](C)NC(=O)[C@H](CCC(=O)O)NC(=O)[C@H](CC(C)C)NC(=O)[C@](C)(Cc1ccccc1)NC(=O)[C@H](CCCCN)NC(=O)[C@H](CO)NC(=O)[C@@H](NC(=O)[C@H](CC(=O)O)NC(=O)[C@H](CO)NC(=O)[C@@H](NC(=O)[C@H](Cc1ccccc1)NC(=O)[C@@H](NC(=O)CNC(=O)[C@H](CCC(N)=O)NC(=O)C(C)(C)NC(=O)[C@@H](N)Cc1c[nH]cn1)[C@@H](C)O)[C@@H](C)O)C(C)C)C(=O)N[C@@H](C)C(=O)N[C@@H](Cc1c[nH]c2ccccc12)C(=O)N[C@@H](CC(C)C)C(=O)N[C@@H](CC(C)C)C(=O)N[C@@H](CCC(=O)O)C(=O)N[C@H](C(N)=O)[C@@H](C)O
hGLP-1R EC50 (pM) [1]: 146 pM | hGluc-R EC50 (pM) [2]: 738 pM

B5: Peptide 136 (peptide)
peptide: H[Aib]QGTFTSDVSK[αMeF]LDSK([γGlu-γGlu-AEEA-AEEA-γGlu-γGlu-C18 diacid])RARDFVRWLLE[Aib]G-OH
modifications: N-terminus assumed
SMILES: CC(C)C[C@H](NC(=O)[C@H](Cc1c[nH]c2ccccc12)NC(=O)[C@H](CCCNC(=N)N)NC(=O)[C@@H](NC(=O)[C@H](Cc1ccccc1)NC(=O)[C@H](CC(=O)O)NC(=O)[C@H](CCCNC(=N)N)NC(=O)[C@H](C)NC(=O)[C@H](CCCNC(=N)N)NC(=O)[C@H](CCCCNC(=O)CC[C@H](NC(=O)CC[C@H](NC(=O)COCCOCCNC(=O)COCCOCCNC(=O)CC[C@H](NC(=O)CC[C@H](NC(=O)CCCCCCCCCCCCCCCCC(=O)O)C(=O)O)C(=O)O)C(=O)O)C(=O)O)NC(=O)[C@H](CO)NC(=O)[C@H](CC(=O)O)NC(=O)[C@H](CC(C)C)NC(=O)[C@](C)(Cc1ccccc1)NC(=O)[C@H](CCCCN)NC(=O)[C@H](CO)NC(=O)[C@@H](NC(=O)[C@H](CC(=O)O)NC(=O)[C@H](CO)NC(=O)[C@@H](NC(=O)[C@H](Cc1ccccc1)NC(=O)[C@@H](NC(=O)CNC(=O)[C@H](CCC(N)=O)NC(=O)C(C)(C)NC(=O)[C@@H](N)Cc1c[nH]cn1)[C@@H](C)O)[C@@H](C)O)C(C)C)C(C)C)C(=O)N[C@@H](CC(C)C)C(=O)N[C@@H](CCC(=O)O)C(=O)NC(C)(C)C(=O)NCC(=O)O
hGLP-1R EC50 (pM) [1]: 45.2 pM | hGluc-R EC50 (pM) [2]: 509 pM

B6: Peptide 137 (peptide)
peptide: H[Aib]QGTFTSDVSK[αMeF]LDSK([γGlu-γGlu-AEEA-AEEA-γGlu-γGlu-C18 diacid])RAQDFVRWLLEG[Aib]-OH
modifications: N-terminus assumed
SMILES: CC(C)C[C@H](NC(=O)[C@H](CC(C)C)NC(=O)[C@H](Cc1c[nH]c2ccccc12)NC(=O)[C@H](CCCNC(=N)N)NC(=O)[C@@H](NC(=O)[C@H](Cc1ccccc1)NC(=O)[C@H](CC(=O)O)NC(=O)[C@H](CCC(N)=O)NC(=O)[C@H](C)NC(=O)[C@H](CCCNC(=N)N)NC(=O)[C@H](CCCCNC(=O)CC[C@H](NC(=O)CC[C@H](NC(=O)COCCOCCNC(=O)COCCOCCNC(=O)CC[C@H](NC(=O)CC[C@H](NC(=O)CCCCCCCCCCCCCCCCC(=O)O)C(=O)O)C(=O)O)C(=O)O)C(=O)O)NC(=O)[C@H](CO)NC(=O)[C@H](CC(=O)O)NC(=O)[C@H](CC(C)C)NC(=O)[C@](C)(Cc1ccccc1)NC(=O)[C@H](CCCCN)NC(=O)[C@H](CO)NC(=O)[C@@H](NC(=O)[C@H](CC(=O)O)NC(=O)[C@H](CO)NC(=O)[C@@H](NC(=O)[C@H](Cc1ccccc1)NC(=O)[C@@H](NC(=O)CNC(=O)[C@H](CCC(N)=O)NC(=O)C(C)(C)NC(=O)[C@@H](N)Cc1c[nH]cn1)[C@@H](C)O)[C@@H](C)O)C(C)C)C(C)C)C(=O)N[C@@H](CCC(=O)O)C(=O)NCC(=O)NC(C)(C)C(=O)O
hGLP-1R EC50 (pM) [1]: 143 pM | hGluc-R EC50 (pM) [2]: 268 pM

B7: Peptide 138 (peptide)
peptide: H[Aib]QGTFTSDVSK[αMeF]LDSK([γGlu-γGlu-AEEA-AEEA-γGlu-γGlu-C18 diacid])RAQDFVRWLLE[Aib]G-OH
modifications: N-terminus assumed
SMILES: CC(C)C[C@H](NC(=O)[C@H](Cc1c[nH]c2ccccc12)NC(=O)[C@H](CCCNC(=N)N)NC(=O)[C@@H](NC(=O)[C@H](Cc1ccccc1)NC(=O)[C@H](CC(=O)O)NC(=O)[C@H](CCC(N)=O)NC(=O)[C@H](C)NC(=O)[C@H](CCCNC(=N)N)NC(=O)[C@H](CCCCNC(=O)CC[C@H](NC(=O)CC[C@H](NC(=O)COCCOCCNC(=O)COCCOCCNC(=O)CC[C@H](NC(=O)CC[C@H](NC(=O)CCCCCCCCCCCCCCCCC(=O)O)C(=O)O)C(=O)O)C(=O)O)C(=O)O)NC(=O)[C@H](CO)NC(=O)[C@H](CC(=O)O)NC(=O)[C@H](CC(C)C)NC(=O)[C@](C)(Cc1ccccc1)NC(=O)[C@H](CCCCN)NC(=O)[C@H](CO)NC(=O)[C@@H](NC(=O)[C@H](CC(=O)O)NC(=O)[C@H](CO)NC(=O)[C@@H](NC(=O)[C@H](Cc1ccccc1)NC(=O)[C@@H](NC(=O)CNC(=O)[C@H](CCC(N)=O)NC(=O)C(C)(C)NC(=O)[C@@H](N)Cc1c[nH]cn1)[C@@H](C)O)[C@@H](C)O)C(C)C)C(C)C)C(=O)N[C@@H](CC(C)C)C(=O)N[C@@H](CCC(=O)O)C(=O)NC(C)(C)C(=O)NCC(=O)O
hGLP-1R EC50 (pM) [1]: 104 pM | hGluc-R EC50 (pM) [2]: 184 pM

H[Aib]QGTFTSDVSK[αMeF]LDSK([γGlu-γGlu-AEEA-AEEA-γGlu-γGlu-C20 diacid])RAQDFVRWLLE[Aib]G-OH [Peptide 139]
hGLP-1R EC50 (pM) [1]: 630 pM | hGluc-R EC50 (pM) [2]: 984 pM
